Measurements reported in the DeepSol protein solubility set.

Test: soluble on expression in E. coli; label from the status in PepcDB or PDB records

Row | Sequence | soluble on expression in E. coli
1 | MPPRRDLKKILIIGSGPITIGQAAEFDYSGTQAVKALRGAGYRVVLVNSNPATIMTDPELAERTYIEPLDLEHLEGILAREAPDALLPTLGGQTGLNLAMALHEEGILQKYGVELIGAKAEAIRKGEDREAFQEAMQRIGLEVPRGQLVGSVEEGLHFAREVGFPVVVRPSFTLGGTGGGIAHDEAELVEVLSRGLTLSPVHTALVEESVLGWKEFELEVMRDHADTVVIITSIENVDPMGVHTGDSITVAPAQTLSDVEYQRMRDAAKAIIREIGVETGGSNIQFAVDPKTGRQVVIEMNPRVSRSSALASKATGFPIAKIAALLAVGYRLDELPNDITRKTPASFEPTIDYVVVKIPRFAFEKFRPLRNTLGELKDELTTQMKSVGEVMAIGRTFKEALMKALRGLERDVRALAGVRTEELEKKLYPNPDRVYAVMELLRRGMPVEELYQATRIDPWFLHQMKEVVEAEEWLKTHPPKDREDWRFYKGLGLTDRRIGELVGKGEKEVRAERKALGVVPVYKTVDTCAAEFEAYTPYHYSTYELEDEVWPSQKPKVVILGSGPIRIGQGVEFDYATVHAVWALKEAGYETIMVNSNPETVSTDYDTADRLYFEPLTLEDVLNIVEHEKPIGVIATLGGQTPLKLAKGLEEAGVRLLGTPFSAIHQAEDREAFHALCQRLGIPQPEGRVAQSPEEALRLAPEVGFPLLVRPSYVLGGRAMQVVRDEGELKRYLEEVYAPLEERPSILLDRFLEGAVELDVDALSDGQEVMVAGIMEHVERAGVHSGDSATLLPPVHVPEEALKKVRDYTRRLALALGVRGLLNVQYAVVGEEVYVLEANPRASRTVPFVSKAIGVPLAKLAALIAVGKTLKELGVRDLDPVPPYYAAKEVVIPWIKFPGVIPELGPEMRSTGESMGIDQDPYLAYYKAELGAGQRLPLSGRVRFIGEGLEDLKALYQEAGFALTEGEDYDLLISLVPDPELRRAVERGLPFITTREGAWWSLKAILRARESGLRVQSLQDWHQKAPRG | soluble
2 | MPQGRGDGGVRMAAISLTKVRETAPALVDLYKTAGVSLTKHGMAGTRAAVYLVVDYSGSMKPYYKDGSVQALADRVLSLSAHLDDDGIVPVVFFSTDVDAVTEIALADHQGRIERIVAGLGHMGKTSYHLAMDAVIDHYLDSGARHPALVVFQTDGGPINRLAAERYLCKAAPLPLFWQFVGFGDPDSRQFEYLRKLDELAVPGKRVIDNAGFFHAGRDPRKVTDAELYDRLVGEFPQWLAAARAQGIARPSLEHHHHHH | not soluble
3 | MPQGSALSDTERAQLDVMKLLNVSLHEMSRKISRSRHCIRVYLKDPVSYGTSKRAPRRKALSVRDERNVIRAASNSCKTARDIRNELQLSASKRTILNVIKRSGVIVRQKLRPAPLLSADHKLKRLEFAKNNMGTNWSKVVFSDEKKFNLDGPDGCRYYWRDLRKEPMVFSRRNFGGGTVMVWGAFTEKKKLEIQFVSSKMNSTDYQNVLELELSKYLRHYSGKDFRFQQDNATIHVSNSTRDYFKLKKINLLDWPARSPDLNPIENLWGILVRIVYAQNKTYPTVASLKQGILDAWKSIPDNQLKSLVRSMEDRLFEIIRTQGNPINY | not soluble
4 | MPQPAARVTDMHVCPMVTPGLPPVPHVGGPLLPPGSPSVFIGGLPAATLGTLALCSGPVDVVIMGSVKVLICGKPAARMGDICAHGGTIVSGYPQVLIG | not soluble
5 | MPQQTVEVKEVDVLIRGIWRKKKFTDIQKGQTFKIEENGRTKKYIARTDPYWDDMFETYIIDLLDKNKIRRNKLEHHHHHH | not soluble
6 | MPQTSAWQLNDTTARPPPPPPPPGSEAGGSDGASMNGANTLPRVSKRVSAAGKTSNIPRFKRPHLPHSTRPLSAVLTSSSSPVVHRKISPSSSAPSTSSAHRRFSHLPQQHFHHHIHHNQTAVISEETLTTPRASTLNLNQTSVFPTAISQGSMPNSGTNTAEASMTSSVCAMETEGTNGDELAESRDMVSEMQRRCRIGPSGYPHLLKAKRLRFYRNGDQYFKGIQYALQSDRVKSMQPLMEDLMKTVICDSTALPHGIRHIFTIDGAQRITSVDQFEDGGGYVCSSTDAFKPVDYSRAAEPSWRLTLANRYNRHLETKKLALSVVEPCHENTDFVFPRIIKVIRNGVKPRRISRHLLNKKTARSFDQVLRDLTFVVKLDSGAIRKLFTLSGRPVLSLQDFFRDDDVFVAYGGNEKMAADDLLVASEEHKSVGSGTSSNMRRTSRRSTMPNRNESLRHDRSGSVIPDQDQQRLPPLLDEKFQLVRLIGDGNTAVVYEVIDKTNNDDRKAMKVIARENVIGKEHLIEMELAILQKIDHTFIVQLYDHWFVDDSYYLSLELIEMGDLFEHLRIVRRVPERDAVRMMTCLGQALEYIHELGIVHRDVKLENLLIVKDEFGELGVKLADFGLAAEMPKDFGVLSTICGTPTYVAPEVLNKTGYGCKVDIWAAGVILYAILVGFPPFQSSDGSEQDLFSAIMSGEFSFPSPSWDDVSWSVRHLIMCLIHTDPFHRYSAGELLNDEWMVNLGDVDPEYEEWAHRFVQSKMHVEEEQETPYEYYTSRRTSMDELSESAAVEFSYSCES | not soluble
7 | MPRDVQVLPIATNTKVLRARSWSRLRFEIEYALERGTTSNSYVIEGDKTAIIDPPVESFMKIYLEALQQTVNLKKLDYVILGHFSPNRIPTFKALLELAPQITFVCSLPAAGDLRAAFPDDNLNILPMRGKETLDLGKGHVLKFLPIPSPRWPAGLCTYDVQTQILYTDKIFGAHICGDDVFDDNWESFKEDQRYYFNCLMAPHAIHVEAALEKISDLQVRLYAVGHGPLVRTSLIALTQAYADWSKAQKDREISVALLYASAYGNTATIARAIALGLTKGGVAVKSINCEFATPEEIQTNLEQVDGFLIGSPTIGGHAPTPINTALGIVLKVGDNNKLAGVFGSYGWSGEALDMIEGKLRDAGYRFGLDTLKVKFKPDDVTLKFCEEVGTDFAQTLKKAKKVRVPQQAATPVEQAVGRIVGSVCVITAKQGDVSTGMLGSWVSQATFNPPGLTVAIAKERAIESLMYPGGKFALNILSEGNHLEYMKHFRKNFAPGEDRFANFTTTEADNGCTVLADALAYVECSVDQRLECGDHWVVYATVDNGKLLKPDDVTAINHRKTGNHYLEHHHHHH | not soluble
8 | MPRLILASTSPWRRALLEKLTIPFECAAPDVDETPMPGEAPRQLVLRLAQAKAQSLAARFPNHLIIGSDQICVLDGEITGKPLTEEKARQQLAKASGNIVTFYTGLALYNSASGHLQTEVEPFDVHFRHLSEAEIDDYVRKEHPLHCAGSFKSEGLGIALFERLEGRDPNTLIGLPLIALCQMLRREGFNPLQQ | not soluble
9 | MPRSDGFSPRKNLRRSARDHSRSYAGQCNEDFDDMYAPSSRRRSSGGVDGNGYTRSGRKINHNRYYEEEYHEAISSEEDERRYRTRRSSNSMTYRQQVMQAIDESKRNQKVPPAKRKRIYLSDEEEEDFAEAAHVENTVPERATRRSTRRRSSMHEELGVSEQEESPVRRTRKAAKRLGSEQPEENLAADDPLPMEGGGEIVLPIAEIDGMAEQENEDLIEKIGREEEEEGAEEDEQSGEKDPEEEEDDSSNAESSEESTAPRQYSLRRRQPVVQFNASEARENRRARLEHHRVANQNRHHRNRNGSRRRRSDSDSDSDDMVLPRPDKRQSRPHMHNRGERERGRFMPINMTEKELQSAQHILMDRMRKTDAGQGASDIDPMSVDSSVGFDQVGGLGHHIQSLKEVVLFPMLYPEVFEKFRINPPKGVVFYGPPGTGKTLVARALANECRRGANKVAFFMRKGADCLSKWVGESERQLRLLFDQAYAMRPSIIFFDEIDGLAPVRSSKQDQIHASIVSTLLALMDGLDGRGEVVVIGATNRLDTLDPALRRPGRFDRELRFSLPDLNARRQILDIHTSKWEENKPIPETLDAIAERTSGYCGADLKFLCTEAVLIGLRSRYPHIYMCSERLKLDVATIKITSEHFGHAMRRITPASRRDLTIPSRPLDERTSILLGDTVSNLISLRIPQGYRCVENAMATASSELEQVVRALEPNPTVPAIRLLLCGSEQLADGGQTSYVLPAILAKLDHLPVFSLSVSSLLTDGRPEEAFSNAIQSAMRASATGPCIMLLPSIDEWIKVIPVSVQHMLITCLESMTGFTPILFLSTLDTSFEDAPEYVTEIFRHANCITLNPSRRTIRQKYFEHVIEKINTPPKVFDPRLMRDRRFVEFVEPVDPDEAEDYYEIIETPICMQDIMEKLNNCEYNHADKFVADLILIQTNALEYNPSTTKDGKLIRQMANTLRDAIDDLIECELDESFVERIETVSRMLQDAGVTPTSDKLLTEIPKGFARKKAWSMTNSLAKEIEQWTSEREAENQKMLSKLGVAAPTLELVVVPVEDMKSEEGTSTSTDGVPASAGNKKKLLKKKKGQKKSKTGESEEHDEDSTVEDAGEDTIVENLEIKKNQETPNSEHDIEMKDASKDSTPSVQISIAEKELIVSKPATCELIQCCVEKSEGWSVSELERLSSVLSHTIERFRDEWNRENLPAQLTQIVREWQTADDSNNTIVNGTLNKSNGNLANGH | not soluble
10 | MPSCEINLIFNDSEEPVTLRDTGIIMLVPVILRSVQSEFPDFENQDNVKVTSPLSIPFNKKAGVFLFEYIQKYVPPNDDTIHELTVVENYKEAGQKTLDELKEIIELANFFECTDFMECLGFVIGKKLEDKSVEEIAAYMGVECNAPGHFFDEADGWVHPPADAFQNVQ | not soluble
11 | MPSLAELTKSLSIAFENGDYAACEKLLPPIKIELIKNNLLIPDLSIQNDIYLNDLMITKRILEVGALASIQTFNFDSFENYFNQLKPYYFSNNHKLSESDKKSKLISLYLLNLLSQNNTTKFHSELQYLDKHIKNLEDDSLLSYPIKLDRWLMEGSYQKAWDLLQSGSQNISEFDSFTDILKSAIRDEIAKNTELSYDFLPLSNIKALLFFNNEKETEKFALERNWPIVNSKVYFNNQSKEKADYEDEMMHEEDQKTNIIEKAMDYAISIENIV | soluble
12 | MPSNCRRFEGKVAIVTAATKGIGLAIAERLLDEGASVVIGSRNQKNVDEAIEYLKNKGLTKVAGIAGHIASTDDQKKLVDFTLQKFGKINILVNNHGINPAFGHILEVSDQVWDKLFEVNVKAGFQMTKLVHPHIAKEGGGAIIFNASYSAYKSPPGIAAYGVTKTTLVGLTRALAMGLAKDNIRVNGIAPGVIKTKMSQVLWDGGEDAEKELTDIQEIALGRLGVPDDCAGTVAYLASDDSSYITGEMIIIAGGVQARL | not soluble
13 | MPSSGQLYGDEERELTPTPAIPEEGVYEVKYSNRRTNVVRLLPNGFQERKLRRLANLSAKLFNEVNFERRQQFFHEGKVNIEETYKKYYEKYKVILGVNAQAVLNKNNEAWSSFFSLLKLKKEGKLPPHMNHVSPPGYWKDREAGKRKQILVIRQDRYKVDAENHKLILKDFDMEIDFIGRLKWYGKQGRLEIIFDETRNAWYAHIPIEVGVEETKAGKKSKHVVKGERKSIQISKPKGNKVASIDLGINVIASVVVNDGTWLLYKGVRTKEDYFYFQKRIAEVQSLADRTRNIGEYDAYLELLREKRRLFKKLTRRLTHLYRNLASHLIETLYELGVSTIYLGYPFNIVQEKGNKFTVNMWSYRKLMESIELKAQEYGMKVFEVVEYNTSKYCAYHDVEVKRNPRGVINCPLGHKLHSDLNGALNILKKALGVIVNAVKKPLSFIVDHNRVAPIKGCNPLEHHHHHH | not soluble
14 | MPSSRGVSLSISLAEAEVAPGGMLRGEVKVKVDSSHKNGIVYEAIRLVFLAVEKSCVWDDQGEFDELLNKYTSSRVYLDRHVTLTGFKTQSEDAETTAQVREEMLFLQHCATPYAAVAPTKPKKDAYRHYTREELLHGAIQMAATTKYTTGGVVAPDTNDSTNICMGSQKPVQAGDGPRSAAAAPRGGATEVEFPVLMPGTHRFPFLFRLPPWLPPSFYYSFVGAKGQLQYSASATMLFPGNGAGSWWFKICKDTSGAMRDMGKTFNRAAGSGAPSGKRARKRPGRDESGEGVIDLDDDEVGERMNRRLTSMPVYGPSDLTTAIHFDVLSVMPRRQLVAEYYQIDTHNLHQRPTNAPREAENAVSSSSNRNGAKKLQRRVDKSNDVGDVKPSGVSTGLLEHHEDTHLALSALYQTFRCGWLGNMCCLQPQNAIEAEVLVVGARTVLLADDVGALQALGVRPPITSDAPQLGGPALHAPDIVPSPDMAVAAPNTPWPVGGITLRVRVRNYCPTHTVECVRVELKVMLEIFKSLKTPHTFPGISYSSFDYTIPIPPGNQALFDVRLGLAPRFRRHETDSESLLPPPGVRTANMTSNTFLQVSFPGMYTYVEEEEEAKGVVIMAETVNLNDEVLELPVRYS | not soluble
